In experiment [1] the target is Catechol 1,2-dioxygenase from Pseudomonas stutzeri GOM2 (Pseudomonas stutzeri GOM2). The experiment is described as follows: SEC; HiLoad 26/60 Superdex 200, 50 mM glycine-NaOH pH 8.5, no NaCl; 500 uL of protein at 20 mg/mL; mass from calibration with standard proteins.
For experiment [2] the target is unchanged. Nature of the experiment: SEC + other: dynamic light scattering; 50 mM glycine-NaOH pH 8.5 with 700 mM NaCl (seawater salinity); SEC on Superdex 200; DLS at 1 mg/mL, 40 °C.
The target is the same in experiment [3]. Nature of the experiment: native gel or EMSA; 10% acrylamide gel under non-denaturing conditions, no SDS or reducing agents; the dimer and trimer samples from SEC mixed and loaded together.

Values joined by “and” are separate entries in the source; they are usually repeats but may differ in a detail not shown here. Equal values may be shown once.

Turning to “Catechol 1,2-dioxygenase from Pseudomonas stutzeri GOM2 (enzyme)”, the stoichiometry N in experiment [1] was 3; in experiment [2], 2; in experiment [3] it was 2 and 3.

These data come from PMC7287156.
